Experiment [1] addresses TraB with a C-terminal double twin-Strep tag (TraB_(Strep4)), VirB10-like subunit of the pED208-encoded T4SS (IncFV plasmid pED208 (carried in E. coli)). Description: cryo-EM structure; OMCC purified in the same way from E. coli BL21(DE3, pKBV) producing only TraV, TraK and TraB_(Strep4); C13 reconstruction of the ORC, C17 and C16 reconstructions of the CC.
Experiment [2] has the same target. In words: cryo-EM structure; OMCC purified from E. coli MC4100(pED208-traB_(Strep4)) (WT) by StrepTrap and Superdex 200 in 50 mM Tris-HCl pH 8, 200 mM NaCl, 1 mM DTT, 1 mM EDTA, 0.06% DM-NPG, 0.1% digitonin; C1, C13 and C17 reconstructions.
Experiment [3] addresses TraK, VirB9-like subunit of the pED208-encoded T4SS (IncFV plasmid pED208 (carried in E. coli)). The experiment is described as above.
Experiment [4] has as its target TraV, VirB7-like lipoprotein subunit of the pED208-encoded T4SS (IncFV plasmid pED208 (carried in E. coli)). Described as above.

Where “and” joins values, the source holds several entries; their conditions need not be identical. Equal entries are not always repeated.

We go through 3 substances from publication PMC8770708.

Consider “TraB with a C-terminal double twin-Strep tag (TraB_(Strep4)), VirB10-like subunit of the pED208-encoded T4SS (natural protein)”, for which the stoichiometry N in experiment [1] is 16 and 17; in experiment [2], 17 copies. For “TraK, VirB9-like subunit of the pED208-encoded T4SS (natural protein)”, the stoichiometry N in experiment [3] stood at 26 copies. In experiment [4], “TraV, VirB7-like lipoprotein subunit of the pED208-encoded T4SS (natural protein)” returned a stoichiometry N of 26 copies.
